According to publication PMC5636114 (PLoS ONE, 2017):

B1: FLASH NTD C54S/C83A/N101A/L104A/N108A, C-terminally hexahistidine-tagged (domain or fragment, human, UniProt Q9UKL3 51-137, looked up)
chain: SRNSLDLYEEILTEEGTAKEATYNDLQVEYGKAQLQMKELMKKFKEIQTQAFSAINEAQSLKKNISALIKTARVEINRKDEEISNLH
notes: FLASH N-terminal domain, human, residues 51-137, C54S/C83A/N101A/L104A/N108A; also called N101A/L104A/N108A mutant
B2: FLASH NTD C54S/C83A/R128A/K129A/D130A, C-terminally hexahistidine-tagged (domain or fragment, human, UniProt Q9UKL3 51-137, looked up)
chain: SRNSLDLYEEILTEEGTAKEATYNDLQVEYGKAQLQMKELMKKFKEIQTQNFSLINENQSLKKNISALIKTARVEINAAAEEISNLH
notes: also called R128A/K129A/D130A mutant
B3: FLASH NTD C54S/C83A/Y73A/L76A/Y80A, C-terminally hexahistidine-tagged (domain or fragment, human, UniProt Q9UKL3 51-137, looked up)
chain: SRNSLDLYEEILTEEGTAKEATANDAQVEAGKAQLQMKELMKKFKEIQTQNFSLINENQSLKKNISALIKTARVEINRKDEEISNLH
notes: also called Y73A/L76A/Y80A mutant
B4: FLASH NTD C54S/C83A/L118A/I119A, C-terminally hexahistidine-tagged (domain or fragment, human, UniProt Q9UKL3 51-137, looked up)
chain: SRNSLDLYEEILTEEGTAKEATYNDLQVEYGKAQLQMKELMKKFKEIQTQNFSLINENQSLKKNISAAAKTARVEINRKDEEISNLH
notes: FLASH N-terminal domain, human, residues 51-137, L118A/I119A in the background of C54S/C83A; also called FLASH NTD L118A/I119A mutant
B5: FLASH NTD C54S/C83A/K88A/K92A/K95A, C-terminally hexahistidine-tagged (domain or fragment, human, UniProt Q9UKL3 51-137, looked up)
chain: SRNSLDLYEEILTEEGTAKEATYNDLQVEYGKAQLQMAELMAKFAEIQTQNFSLINENQSLKKNISALIKTARVEINRKDEEISNLH
notes: also called K88A/K92A/K95A mutant

Columns and labels:
[1] = biological target: the molecule itself; test: AUC; sedimentation velocity (42,000 rpm) and equilibrium, 20 C, 20 mM Tris (pH 8.5), 250 mM NaCl, 5 mM DTT (low-salt condition), 0.05 to 1 mg/ml (complex also 8 mg/ml); global fit by SEDPHAT: monomer-dimer self-association (dimer to monomers) or A + B <-> AB hetero-association
[2] = biological target: the molecule itself; test: SEC; Superose 12 analytical gel filtration of nickel-purified protein, 20 mM Tris (pH 7.5), 250 mM NaCl, 5 mM DTT, 0.5 mL/min; migration compared with the C54S/C83A control

Row | Protein | stoichiometry N [1] | binding result [2]
1 | B1 | ~3 | –
2 | B2 | – | binds
3 | B3 | – | binds
4 | B4 | – | binds
5 | B5 | – | binds
